Tested on: Escherichia coli TOP10
Test: shrunken log2 fold change of peptide-encoding DNA abundance (4.5 h post-induction vs induction); higher = less antimicrobial activity (less host growth inhibition)
Details: time post-induction: 4.5 h; library: site-saturation at positions 5, 18, 19, 20
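Also: peptides expressed intracellularly from a pBAD plasmid library in pooled LB shake-flask culture, induced with 0.3% L-arabinose, DNA abundance read by NGS, three biological replicates, DESeq2 with apeglm shrinkage.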

For RRIRSRPPRLPRPRPRPCVWPRP, the “shrunken log2 fold change” value was 0.8.

For RRIRSRPPRLPRPRPRPCWTPRP, the “shrunken log2 fold change” value was -0.306.

With RRIRSRPPRLPRPRPRPCYMPRP the “shrunken log2 fold change” value was -0.562.

With RRIRSRPPRLPRPRPRPCYRPRP the “shrunken log2 fold change” value was 0.0109.

RRIRSRPPRLPRPRPRPDCCPRP was tested, and the “shrunken log2 fold change” value was 0.227.

For RRIRSRPPRLPRPRPRPDCHPRP, the “shrunken log2 fold change” value was -0.0994.

For RRIRSRPPRLPRPRPRPDDNPRP, the “shrunken log2 fold change” value was 0.00575.

In the case of RRIRSRPPRLPRPRPRPDEIPRP, the “shrunken log2 fold change” value is reported as 0.139.

For RRIRSRPPRLPRPRPRPDETPRP, the “shrunken log2 fold change” value was -0.0257.

In the case of RRIRSRPPRLPRPRPRPDFSPRP, the “shrunken log2 fold change” value is reported as 0.0706.

RRIRSRPPRLPRPRPRPDGSPRP was tested, and the “shrunken log2 fold change” value was -0.0196.

With RRIRSRPPRLPRPRPRPDHEPRP the “shrunken log2 fold change” value was -0.0462.

In the case of RRIRSRPPRLPRPRPRPDISPRP, the “shrunken log2 fold change” value is reported as -0.0675.

For RRIRSRPPRLPRPRPRPDLSPRP, the “shrunken log2 fold change” value was 0.101.

With RRIRSRPPRLPRPRPRPDMAPRP the “shrunken log2 fold change” value was -0.0366.

RRIRSRPPRLPRPRPRPDMCPRP was tested, and the “shrunken log2 fold change” value was 0.0552.

With RRIRSRPPRLPRPRPRPDNIPRP the “shrunken log2 fold change” value was -0.347.

With RRIRSRPPRLPRPRPRPDNPPRP the “shrunken log2 fold change” value was -0.0934.

For RRIRSRPPRLPRPRPRPDPAPRP, the “shrunken log2 fold change” value was 0.45.

For RRIRSRPPRLPRPRPRPDQQPRP, the “shrunken log2 fold change” value was 0.0193.

For RRIRSRPPRLPRPRPRPDRTPRP, the “shrunken log2 fold change” value was -0.256.

RRIRSRPPRLPRPRPRPDSCPRP was tested, and the “shrunken log2 fold change” value was -0.0234.

For RRIRSRPPRLPRPRPRPDSGPRP, the “shrunken log2 fold change” value was -0.02.

For RRIRSRPPRLPRPRPRPDSNPRP, the “shrunken log2 fold change” value was -0.529.

With RRIRSRPPRLPRPRPRPDTDPRP the “shrunken log2 fold change” value was 0.0794.

RRIRSRPPRLPRPRPRPDYMPRP was tested, and the “shrunken log2 fold change” value was -0.355.

In the case of RRIRSRPPRLPRPRPRPEDAPRP, the “shrunken log2 fold change” value is reported as 0.821.

For RRIRSRPPRLPRPRPRPEDCPRP, the “shrunken log2 fold change” value was 0.0867.

For RRIRSRPPRLPRPRPRPEDFPRP, the “shrunken log2 fold change” value was -0.149.

With RRIRSRPPRLPRPRPRPEDSPRP the “shrunken log2 fold change” value was 0.00839.

With RRIRSRPPRLPRPRPRPEFSPRP the “shrunken log2 fold change” value was 0.203.

RRIRSRPPRLPRPRPRPEGKPRP was tested, and the “shrunken log2 fold change” value was 0.0822.

In the case of RRIRSRPPRLPRPRPRPEGSPRP, the “shrunken log2 fold change” value is reported as 0.223.

In the case of RRIRSRPPRLPRPRPRPEGTPRP, the “shrunken log2 fold change” value is reported as 0.123.

In the case of RRIRSRPPRLPRPRPRPEHAPRP, the “shrunken log2 fold change” value is reported as -0.0123.

For RRIRSRPPRLPRPRPRPEHEPRP, the “shrunken log2 fold change” value was -0.182.

RRIRSRPPRLPRPRPRPEHYPRP was tested, and the “shrunken log2 fold change” value was -0.132.

For RRIRSRPPRLPRPRPRPEIHPRP, the “shrunken log2 fold change” value was 0.0186.

In the case of RRIRSRPPRLPRPRPRPEIVPRP, the “shrunken log2 fold change” value is reported as 0.412.

RRIRSRPPRLPRPRPRPEKGPRP was tested, and the “shrunken log2 fold change” value was 0.0255.

For RRIRSRPPRLPRPRPRPELCPRP, the “shrunken log2 fold change” value was -0.0749.

With RRIRSRPPRLPRPRPRPELSPRP the “shrunken log2 fold change” value was 0.963.

RRIRSRPPRLPRPRPRPEMSPRP was tested, and the “shrunken log2 fold change” value was 0.259.

With RRIRSRPPRLPRPRPRPEPLPRP the “shrunken log2 fold change” value was 0.0528.

In the case of RRIRSRPPRLPRPRPRPEPSPRP, the “shrunken log2 fold change” value is reported as 0.859.

In the case of RRIRSRPPRLPRPRPRPEQEPRP, the “shrunken log2 fold change” value is reported as 0.0257.

In the case of RRIRSRPPRLPRPRPRPERGPRP, the “shrunken log2 fold change” value is reported as -0.0603.

RRIRSRPPRLPRPRPRPEWLPRP was tested, and the “shrunken log2 fold change” value was 0.625.

For RRIRSRPPRLPRPRPRPFAMPRP, the “shrunken log2 fold change” value was -0.0258.

For RRIRSRPPRLPRPRPRPFCLPRP, the “shrunken log2 fold change” value was -0.302.

With RRIRSRPPRLPRPRPRPFDKPRP the “shrunken log2 fold change” value was -0.232.

RRIRSRPPRLPRPRPRPFDQPRP was tested, and the “shrunken log2 fold change” value was -0.256.

In the case of RRIRSRPPRLPRPRPRPFEQPRP, the “shrunken log2 fold change” value is reported as -0.0212.

RRIRSRPPRLPRPRPRPFFEPRP was tested, and the “shrunken log2 fold change” value was -0.161.

For RRIRSRPPRLPRPRPRPFGMPRP, the “shrunken log2 fold change” value was -0.25.

In the case of RRIRSRPPRLPRPRPRPFGYPRP, the “shrunken log2 fold change” value is reported as -0.179.

With RRIRSRPPRLPRPRPRPFHCPRP the “shrunken log2 fold change” value was -0.0582.

RRIRSRPPRLPRPRPRPFHPPRP was tested, and the “shrunken log2 fold change” value was 0.0938.

With RRIRSRPPRLPRPRPRPFIMPRP the “shrunken log2 fold change” value was -1.09.

RRIRSRPPRLPRPRPRPFIPPRP was tested, and the “shrunken log2 fold change” value was -0.629.

With RRIRSRPPRLPRPRPRPFNKPRP the “shrunken log2 fold change” value was -0.81.

RRIRSRPPRLPRPRPRPFNQPRP was tested, and the “shrunken log2 fold change” value was -0.295.

For RRIRSRPPRLPRPRPRPFPVPRP, the “shrunken log2 fold change” value was -0.516.

For RRIRSRPPRLPRPRPRPFRLPRP, the “shrunken log2 fold change” value was -0.793.

For RRIRSRPPRLPRPRPRPFSIPRP, the “shrunken log2 fold change” value was -0.379.

RRIRSRPPRLPRPRPRPFTDPRP was tested, and the “shrunken log2 fold change” value was -0.04.

In the case of RRIRSRPPRLPRPRPRPFVCPRP, the “shrunken log2 fold change” value is reported as -0.326.

With RRIRSRPPRLPRPRPRPFVKPRP the “shrunken log2 fold change” value was -0.222.

RRIRSRPPRLPRPRPRPFVQPRP was tested, and the “shrunken log2 fold change” value was -0.496.

For RRIRSRPPRLPRPRPRPFWKPRP, the “shrunken log2 fold change” value was -0.125.

With RRIRSRPPRLPRPRPRPFYNPRP the “shrunken log2 fold change” value was -0.54.

With RRIRSRPPRLPRPRPRPGCGPRP the “shrunken log2 fold change” value was 0.62.

For RRIRSRPPRLPRPRPRPGFMPRP, the “shrunken log2 fold change” value was -0.101.

With RRIRSRPPRLPRPRPRPGGTPRP the “shrunken log2 fold change” value was 0.247.

In the case of RRIRSRPPRLPRPRPRPGIHPRP, the “shrunken log2 fold change” value is reported as 0.115.

With RRIRSRPPRLPRPRPRPGKYPRP the “shrunken log2 fold change” value was -0.759.

For RRIRSRPPRLPRPRPRPGLHPRP, the “shrunken log2 fold change” value was 0.186.

RRIRSRPPRLPRPRPRPGMTPRP was tested, and the “shrunken log2 fold change” value was -0.105.

RRIRSRPPRLPRPRPRPGNIPRP was tested, and the “shrunken log2 fold change” value was -0.281.

With RRIRSRPPRLPRPRPRPGNMPRP the “shrunken log2 fold change” value was -0.12.

With RRIRSRPPRLPRPRPRPGNQPRP the “shrunken log2 fold change” value was -0.0918.

For RRIRSRPPRLPRPRPRPGPLPRP, the “shrunken log2 fold change” value was 0.292.

With RRIRSRPPRLPRPRPRPGPWPRP the “shrunken log2 fold change” value was -0.0683.

With RRIRSRPPRLPRPRPRPGQGPRP the “shrunken log2 fold change” value was 0.0895.

For RRIRSRPPRLPRPRPRPGRVPRP, the “shrunken log2 fold change” value was 0.162.

For RRIRSRPPRLPRPRPRPGSSPRP, the “shrunken log2 fold change” value was -0.168.

In the case of RRIRSRPPRLPRPRPRPGTDPRP, the “shrunken log2 fold change” value is reported as -0.0659.

In the case of RRIRSRPPRLPRPRPRPGVAPRP, the “shrunken log2 fold change” value is reported as 0.42.

In the case of RRIRSRPPRLPRPRPRPGVFPRP, the “shrunken log2 fold change” value is reported as 0.146.

With RRIRSRPPRLPRPRPRPGWDPRP the “shrunken log2 fold change” value was 0.444.

With RRIRSRPPRLPRPRPRPGWKPRP the “shrunken log2 fold change” value was 0.0342.

With RRIRSRPPRLPRPRPRPGYRPRP the “shrunken log2 fold change” value was -0.0248.

RRIRSRPPRLPRPRPRPHACPRP was tested, and the “shrunken log2 fold change” value was -0.0756.

With RRIRSRPPRLPRPRPRPHAMPRP the “shrunken log2 fold change” value was -0.376.

RRIRSRPPRLPRPRPRPHCIPRP was tested, and the “shrunken log2 fold change” value was 0.021.

With RRIRSRPPRLPRPRPRPHCLPRP the “shrunken log2 fold change” value was -0.0826.

With RRIRSRPPRLPRPRPRPHCTPRP the “shrunken log2 fold change” value was -0.298.

RRIRSRPPRLPRPRPRPHDWPRP was tested, and the “shrunken log2 fold change” value was -0.323.

With RRIRSRPPRLPRPRPRPHECPRP the “shrunken log2 fold change” value was -0.0285.

For RRIRSRPPRLPRPRPRPHENPRP, the “shrunken log2 fold change” value was 0.0415.

With RRIRSRPPRLPRPRPRPHEVPRP the “shrunken log2 fold change” value was -0.0564.

RRIRSRPPRLPRPRPRPHFFPRP was tested, and the “shrunken log2 fold change” value was -0.0717.

For RRIRSRPPRLPRPRPRPHHEPRP, the “shrunken log2 fold change” value was -0.0237.

RRIRSRPPRLPRPRPRPHHFPRP was tested, and the “shrunken log2 fold change” value was 0.0761.

For RRIRSRPPRLPRPRPRPHHNPRP, the “shrunken log2 fold change” value was -0.708.

In the case of RRIRSRPPRLPRPRPRPHLCPRP, the “shrunken log2 fold change” value is reported as -0.121.

For RRIRSRPPRLPRPRPRPHLSPRP, the “shrunken log2 fold change” value was -0.0791.

RRIRSRPPRLPRPRPRPHMMPRP was tested, and the “shrunken log2 fold change” value was -0.113.

RRIRSRPPRLPRPRPRPHNQPRP was tested, and the “shrunken log2 fold change” value was -0.271.
